Here are results for two molecules from patent publication US11497805B2, “Toll-like receptor 2 agonists and vaccines and uses thereof” (The Provost, Fellows, Foundation Scholars & the Other …, priority 2014, dated 2022).

The test system of test [1] is TLR2. As to the kind of experiment: BP2992 activity as TLR2 ligand (data not shown). An excerpt: C-terminal histidine versions of the putative lipoproteins were constructed and expressed in E. coli by IPTG induction. BP1569 and BP2992 were successfully expressed and purified by nickel affinity followed by ion-exchange chromatography. […] Therefore, the inventors adopted a strategy of carrying out all initial studies with lipoproteins in TLR4 defective cells or mice and then synthesized lipopeptide versions of the lipoproteins for more thorough immunological analysis.

The subject of test [2] is dendritic cells from C3H/HeJ mice. As to the kind of experiment: BP2992 maturation and cytokine production by dendritic cells. Format: cell-based. Conditions: 24 h. On the procedure: Lane 1: 5 ng BP2992; lane 2: 10 ng BP2992.
Test [3] relates to human peripheral blood mononuclear cells (PBMC). As to the kind of experiment: BP2992 cytokine production from human PBMC. Type of test: cell-based. To be noted: 0.01-1 μg/ml, 24 h, two donors. On the procedure:
PBMC from two human donors (A and B) were treated with BP2992 (0.01-1 μg/ml), After 24 h, the concentrations of TNF-α in supernatants were determined by ELISA.

The target of test [4] is T1, TLR2 (Mus musculus, UniProt Q9EPQ1+Q9QUN7).
T1 construct: Bone marrow derived dendritic cells (DCs) were prepared by culturing bone marrow cells obtained from the femur and tibia of mice; endogenous in cells; host or cells: bone marrow-derived dendritic cells from C3H/HeJ mice (A3, A25) or C57BL/6 mice (A13)
As to the kind of experiment: BP2992 cytokine production by DC with anti-TLR2 antibody. Format: cell-based, mice. Conditions: with or without anti-TLR2 T2.5 2.5 μg/ml, 24 hours. On the procedure:
After 24 hours IL-6 production was measured by ELISA. […] After 24 hours TNF-α production was measured by ELISA.

For the next test, the target named is T2, human TLR1 (Homo sapiens, UniProt O60603+Q15399).
T2 construct: endogenous in cells; host or cells: human PBMC
As to the kind of experiment: BP1569-induced IL-6 in human PBMC with TLR1 blocking antibody. Format: cell-based. To be noted: 100 ng/ml, 24 h. On the procedure: (§1) Luciferase activity was quantified after 24 h. […] IL-8 production was quantified after 24 h. […] After 24 h, the concentrations of IL-6 in supernatants were determined by ELISA.
(§2) Cytokine production by TLR2 requires activation of the transcription factors NF-κB and p38 MAP kinase. To determine if BP1569 activates NF-κB, HEK 293T cells stably expressing TLR2, but devoid of TLR4, were transfected with an NF-κB luciferase reporter construct. […] To assess activation of the MAP kinase pathway, spleen cells from C3H/HeJ mice were stimulated with BP1569. […] TLR agonists can bind to TLR1/2 or TLR2/6 heterodimers, therefore, the role of these TLRs using specific blocking antibodies to human TLR1 and TLR6 was examined.

The next test concerns the target T3, human TLR6 (Homo sapiens, UniProt Q9Y2C9).
T3 construct: endogenous in cells; host or cells: human PBMC
As to the kind of experiment: BP1569-induced IL-6 in human PBMC with anti-TLR6 antibody. Conditions: 100 ng/ml, 24 h. Type of test: cell-based. The method, then: as §1, §2

Test [5] concerns bone marrow-derived DCs from TLR4-defective C3H/HeJ mice. As to the kind of experiment: Cytokine production by bone marrow-derived DC stimulated with BP1569 (ELISA). Type of test: cell-based. To be noted: BP1569 100 and 1000 ng/ml, 24 h. On the procedure: (§3) Lipase-treated or untreated BP1569 (100 ng/ml) was used to stimulate BMDC from C3H/HeJ mice.
(§4) Bone marrow derived dendritic cells (DCs) were prepared by culturing bone marrow cells obtained from the femur and tibia of mice in complete RPMI (cRPMI, RPMI containing 10% fetal calf serum, 100 U/ml penicillin, 100 μg/ml streptomycin, 2 mM 1-glutamine (Invitrogen), and 50 μM 2-ME (Sigma-Aldrich) supplemented with GM-CSF 40 ng/ml. Cells were re-cultured with fresh medium containing 40 ng/ml GM-CSF every 3 d for a period of 8 d. DC were seeded at 1×10^6 cells per ml 24 hr prior to stimulation. ELISA assays were performed using R&D kits according to the manufacturer's instructions. Spleen cells from C3H/HeJ mice were seeded at 2×10^6 cells per ml and stimulated with Pam3Cys4 (120nM) or BP1569 (120 nM) for the indicated times, with or without addition of T2.5-anti-TLR2 antibody or an isotype control (Hycult Biotech). For p38 activation assays, samples were lysed with RIPA buffer and SDS-PAGE was performed followed by Western blotting with anti-phospho-p38 and β-actin antibodies (Cell Signaling).
(§5) The present inventors examined the capacity of pertussis lipoprotein to activate innate immune cells in vitro using bone marrow-derived DCs from TLR4-defective C3H/HeJ mice. […] Furthermore, stimulation of DCs with BP1569 for 24 hours enhanced surface expression of MHC class II, CD80 and CD86 detectable by flow cytometry (FIG. 2C).
A general note: ELISA stands for enzyme-linked immunosorbent assay.

For test [6], the target named is T1, TLR2. As to the kind of experiment: BP1569-induced TNF-α production by DC with TLR2 blocking antibody. Type of test: cell-based, mice. Conditions: BP1569 100 ng/ml, 24 h, anti-TLR2 T2.5 2.5 μg/ml. On the procedure: as §3
(§6) Blocking antibodies were used against TLR2 to determine if the proteins can activate TLR2 specifically. […] Lipase treatment was used to confirm that the immunostimulatry effects of BP1569 were due the presence of the characteristic acyl side chain of the lipoprotein. The recombinant lipoprotein was incubated with two separate lipases for 18 h prior to stimulation of DC. Lipase treatment abolished BP1569-induced IL-12p40 and IL-6 production (FIG. 2E), but had no effect on cytokine production induced by the TLR9 agonist CpG (data not shown), confirming that BP1569 contains lipid side chains capable of triggering TLR2-induced inflammatory cytokine production.

The target of test [7] is T4, human TLR2 (Homo sapiens, UniProt O60603+Q15399).
T4 construct: expressed in transfected cells; host or cells: HEK 293T
As to the kind of experiment: NF-κB luciferase reporter assay in HEK 293T cells stably expressing TLR2. To be noted: 100 ng/ml, HEK 293T-TLR2, devoid of TLR4. Type of test: cell-based. The method, then: as §1
HEK 293T cells stably expressing human TLR2 were transfected with an NF-κB luciferase construct as described previously (21) and stimulated overnight with the indicated concentrations of BP1569.
as §2
On the technique in general: In a reporter assay the amount or activity of a reporter protein is the signal.

The test system of the next test is BMDC from C3H/HeJ mice. As to the kind of experiment: Lipase treatment of lipoprotein before stimulation of DC. Format: cell-based. To be noted: lipase from Aspergillus or Pseudomonas, 18 h. The method, then:
as §3, §6

Another test deals with DC from C3H/HeJ mice. As to the kind of experiment: DC maturation: surface expression of MHC class II, CD80, CD86 by flow cytometry. Format: cell-based. To be noted: 100 ng/ml, 24 hours vs medium only. On the procedure: as §3
Following stimulation, DC were stained with CD11c (clone N418; eBioscience), MHCII (clone M5/114.15.2 ebioscience), CD80 (clone 16-10A1 eBioscience) and CD86 (clone […] eBioscience). Samples were analyzed with a FACS DIVA and FloJo software.
as §5
On the technique in general: Flow cytometry measures light scatter and fluorescence of single cells or particles in a stream.

The next test has as its system p38 MAP kinase. As to the kind of experiment: p38 phosphorylation in spleen cells (Western blot). Type of test: cell-based. To be noted: spleen cells from C3H/HeJ mice. The method, then: as §1, §4
Cytokine production by TLR2 requires activation of the transcription factors NF-κB and p38 MAP kinase. […]

The target of test [8] is T4, human TLR2. As to the kind of experiment: IL-8 production by TLR2 transfected HEK 293T cells. Conditions: HEK 293T-TLR2, 24 h. Type of test: cell-based. The method, then: as §1, §2
Test [9] deals with C3H/HeJ mice. As to the kind of experiment: Cytokine induction in vivo by BP1569 (serum ELISA). To be noted: 70 μg intraperitoneally, 3 h, versus PBS controls. On the procedure: (§7) After 3 h serum IL-12 and IL-6 concentrations were quantified by ELISA. […] After seven days the draining lymph node was harvested and cells were stimulated with BP1569 (2 μg/ml). […] After seven days the draining lymph node was harvested and cells were stimulated with total heat killed B. pertussis 1-100×10^6/ml).
C3H/HeJ mice were treated intraperitoneally with BP1569 (70 μg) or PBS control and serum cytokines were measured by ELISA after 3h.
C3H/HeJ mice were treated intraperitoneally with BP1569 (70 μg) and serum cytokines were measured after 3 h.

Test [10] has as its system C3H/HeJ mice. As to the kind of experiment: Antigenicity of BP1569: footpad immunization, lymph node cell re-stimulation. Type of test: in vivo. To be noted: 10 μg footpad. On the procedure:
as §7
C3H/HeJ mice were injected into the footpad with BP1569 (10 μg) diluted in PBS or with PBS only. After seven days the draining lymph node was harvested and the lymph node cells were stimulated with either BP1569 (2 μg/ml) or heat killed B. pertussis pertussis (1-100×10^6/ml). After 3 days of culture, the concentration of IFN-γ in supernatants was quantified by ELISA.
The possibility that BP1569 was immunogenic in vivo and capable of inducing B. pertussis-specific immune responses was examined. C3H/HeJ mice were injected into the footpad with BP1569 (10 μg) diluted in PBS or with PBS only. After seven days the draining lymph node was harvested and the lymph node cells were stimulated with either BP1569 (2 μg/ml) or heat killed B. pertussis.

T4 sequence (O60603 21-784): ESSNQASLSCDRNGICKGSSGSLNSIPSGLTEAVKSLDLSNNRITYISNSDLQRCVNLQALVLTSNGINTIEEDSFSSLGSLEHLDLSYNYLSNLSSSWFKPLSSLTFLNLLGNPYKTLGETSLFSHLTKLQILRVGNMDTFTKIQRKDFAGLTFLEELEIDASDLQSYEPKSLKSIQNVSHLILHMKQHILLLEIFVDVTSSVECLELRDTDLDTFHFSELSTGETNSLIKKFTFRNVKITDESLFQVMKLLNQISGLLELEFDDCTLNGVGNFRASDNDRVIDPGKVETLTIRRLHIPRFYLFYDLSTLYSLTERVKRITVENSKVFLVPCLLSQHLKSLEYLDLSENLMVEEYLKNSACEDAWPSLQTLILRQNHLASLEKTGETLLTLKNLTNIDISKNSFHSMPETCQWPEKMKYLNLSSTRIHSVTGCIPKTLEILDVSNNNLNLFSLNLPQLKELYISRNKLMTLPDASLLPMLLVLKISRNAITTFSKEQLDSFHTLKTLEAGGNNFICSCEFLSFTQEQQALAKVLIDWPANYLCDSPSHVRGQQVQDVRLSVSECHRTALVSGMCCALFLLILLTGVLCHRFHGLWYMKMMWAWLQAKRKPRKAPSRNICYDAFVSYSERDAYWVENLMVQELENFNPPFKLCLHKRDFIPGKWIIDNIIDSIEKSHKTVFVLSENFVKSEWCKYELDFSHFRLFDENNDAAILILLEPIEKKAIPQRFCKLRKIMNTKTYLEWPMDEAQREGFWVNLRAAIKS
T4 sequence (Q15399 25-786): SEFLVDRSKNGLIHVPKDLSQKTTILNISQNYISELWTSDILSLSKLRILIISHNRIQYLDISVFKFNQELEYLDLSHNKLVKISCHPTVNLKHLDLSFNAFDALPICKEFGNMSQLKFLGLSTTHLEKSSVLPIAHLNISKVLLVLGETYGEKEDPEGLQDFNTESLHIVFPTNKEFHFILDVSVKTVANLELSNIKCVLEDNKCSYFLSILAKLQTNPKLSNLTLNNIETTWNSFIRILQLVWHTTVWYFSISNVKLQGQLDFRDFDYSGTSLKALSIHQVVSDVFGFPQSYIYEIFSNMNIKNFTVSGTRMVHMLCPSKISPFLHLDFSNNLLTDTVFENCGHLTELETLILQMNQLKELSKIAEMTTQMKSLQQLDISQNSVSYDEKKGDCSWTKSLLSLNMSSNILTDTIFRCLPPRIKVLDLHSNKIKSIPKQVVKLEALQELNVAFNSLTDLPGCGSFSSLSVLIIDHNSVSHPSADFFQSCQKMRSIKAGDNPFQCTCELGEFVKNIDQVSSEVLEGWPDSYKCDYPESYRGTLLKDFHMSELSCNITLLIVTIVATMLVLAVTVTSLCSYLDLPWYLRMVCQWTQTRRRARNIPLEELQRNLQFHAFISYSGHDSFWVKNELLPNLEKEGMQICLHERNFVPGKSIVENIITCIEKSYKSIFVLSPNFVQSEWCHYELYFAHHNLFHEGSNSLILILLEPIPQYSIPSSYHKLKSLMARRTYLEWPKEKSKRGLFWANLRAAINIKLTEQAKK
T1 sequence (Q9QUN7 25-784): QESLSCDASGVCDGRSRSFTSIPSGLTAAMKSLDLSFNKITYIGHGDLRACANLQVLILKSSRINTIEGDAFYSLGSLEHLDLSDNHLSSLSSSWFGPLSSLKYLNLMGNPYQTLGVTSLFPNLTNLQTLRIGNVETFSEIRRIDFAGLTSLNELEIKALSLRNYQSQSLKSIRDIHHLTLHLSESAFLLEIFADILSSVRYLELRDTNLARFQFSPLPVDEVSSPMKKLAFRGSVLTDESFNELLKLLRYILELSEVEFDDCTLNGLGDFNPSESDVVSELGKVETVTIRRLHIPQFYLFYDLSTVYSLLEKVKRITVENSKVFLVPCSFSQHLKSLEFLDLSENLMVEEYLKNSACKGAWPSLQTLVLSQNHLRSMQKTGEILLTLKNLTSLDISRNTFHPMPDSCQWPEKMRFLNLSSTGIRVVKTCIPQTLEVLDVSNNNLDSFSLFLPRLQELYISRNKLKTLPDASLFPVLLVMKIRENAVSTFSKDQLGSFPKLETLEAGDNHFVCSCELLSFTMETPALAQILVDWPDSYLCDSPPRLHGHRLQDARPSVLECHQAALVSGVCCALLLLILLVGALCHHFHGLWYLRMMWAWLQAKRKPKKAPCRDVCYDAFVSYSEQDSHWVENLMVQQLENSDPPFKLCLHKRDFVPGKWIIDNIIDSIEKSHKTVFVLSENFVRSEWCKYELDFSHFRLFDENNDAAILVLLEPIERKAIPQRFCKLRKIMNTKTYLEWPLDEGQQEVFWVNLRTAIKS
T1 sequence (Q9EPQ1 26-795): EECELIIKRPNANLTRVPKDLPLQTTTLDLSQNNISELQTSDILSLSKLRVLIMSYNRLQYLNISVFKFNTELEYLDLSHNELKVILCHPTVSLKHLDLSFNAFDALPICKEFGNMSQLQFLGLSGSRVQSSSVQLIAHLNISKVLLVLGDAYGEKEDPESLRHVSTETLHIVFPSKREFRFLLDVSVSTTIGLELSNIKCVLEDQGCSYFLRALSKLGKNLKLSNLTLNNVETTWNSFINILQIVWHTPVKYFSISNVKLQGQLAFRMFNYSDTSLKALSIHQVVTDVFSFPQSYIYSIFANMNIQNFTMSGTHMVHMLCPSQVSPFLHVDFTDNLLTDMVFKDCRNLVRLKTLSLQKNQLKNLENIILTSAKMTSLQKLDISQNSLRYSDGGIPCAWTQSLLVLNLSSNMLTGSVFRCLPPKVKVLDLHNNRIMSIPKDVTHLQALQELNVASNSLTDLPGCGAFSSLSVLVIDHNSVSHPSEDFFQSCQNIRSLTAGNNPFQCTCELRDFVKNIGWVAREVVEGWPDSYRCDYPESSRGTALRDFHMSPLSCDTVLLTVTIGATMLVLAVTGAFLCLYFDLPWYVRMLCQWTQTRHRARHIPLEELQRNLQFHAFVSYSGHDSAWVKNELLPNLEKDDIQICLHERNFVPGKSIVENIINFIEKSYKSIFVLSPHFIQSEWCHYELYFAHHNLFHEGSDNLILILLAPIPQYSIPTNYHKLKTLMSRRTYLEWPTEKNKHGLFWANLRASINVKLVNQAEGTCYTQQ
T2 sequence (Q15399 25-786): as the sequence (Q15399 25-786) above
T2 sequence (O60603 21-784): as the sequence (O60603 21-784) above
T3 sequence (O60603 21-784 partner): as the sequence (O60603 21-784) above
T3 sequence (Q9Y2C9 32-796): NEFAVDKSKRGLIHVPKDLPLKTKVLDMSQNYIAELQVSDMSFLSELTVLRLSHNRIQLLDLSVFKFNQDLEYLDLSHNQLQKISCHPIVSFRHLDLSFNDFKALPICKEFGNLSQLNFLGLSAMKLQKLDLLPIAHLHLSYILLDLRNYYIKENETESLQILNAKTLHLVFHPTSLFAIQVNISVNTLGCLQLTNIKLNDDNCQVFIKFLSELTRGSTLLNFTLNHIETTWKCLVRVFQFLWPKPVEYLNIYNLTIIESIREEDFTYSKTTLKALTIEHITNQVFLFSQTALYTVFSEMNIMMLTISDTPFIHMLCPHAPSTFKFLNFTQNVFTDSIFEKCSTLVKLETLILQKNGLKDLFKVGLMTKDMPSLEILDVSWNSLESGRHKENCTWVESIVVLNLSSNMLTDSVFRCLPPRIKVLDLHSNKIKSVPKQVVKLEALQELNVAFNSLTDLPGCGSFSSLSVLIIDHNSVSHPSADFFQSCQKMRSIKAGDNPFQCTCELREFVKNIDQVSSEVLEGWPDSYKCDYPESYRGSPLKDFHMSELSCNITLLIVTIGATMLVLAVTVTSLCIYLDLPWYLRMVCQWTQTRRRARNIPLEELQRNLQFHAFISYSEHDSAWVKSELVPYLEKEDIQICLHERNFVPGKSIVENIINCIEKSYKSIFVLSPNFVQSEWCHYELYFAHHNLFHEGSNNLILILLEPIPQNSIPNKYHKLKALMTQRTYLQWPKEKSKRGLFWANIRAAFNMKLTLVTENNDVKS

B1: BP2992: full length B. pertussis lipoprotein BP2992, ~16 kDa (protein, listed as Bordetella pertussis)
chain: NYMHSPSVVAGRARRLLAVAAVAGSVAVLAGCANPSASSGVYTYGQAQREQIVRTGTVTGVRPITIQNDKSSGVGLVAGGALGGVAGNAVGGGTGRTIATVGGVILGALAGNAIENRAGKSSGYEITVRLDNGETRVVAQEADVPISVGQRVQVISGAGPTRVTPY
For the molecule B1, the “ligand activity for TLR2” value in the test with TLR2 [1] is “immunologically active ligand for TLR2”. Further, the “maturation of dendritic cells (MHC class II, CD80, CD86)” value in test [2] (100 ng/ml) is “induces”. Besides, the “pro-inflammatory cytokine production by dendritic cells” value in test [2] (50, 100 and 1000 ng/ml) is listed as “induces”. Further, the “pro-inflammatory cytokine production (TNF-α) from human PBMC” value in [3] is recorded as “induces”. The “TLR2 dependence of pro-inflammatory cytokine production by DCs (IL-6, TNF-α)” value with TLR2 [4] was “in a TLR2 dependent manner”.

B2: BP1569: full length B. pertussis lipoprotein BP1569, ~40 kDa, TLR2 agonist (protein, listed as Bordetella pertussis)
chain: MRMNKRHAGASALMALALLAGCSDVNQLLGNEESVDYKSTRRGDPLSIPPDLTQANNDPRYKAPASGTATYSQFQQQGLQQQASAGQNTNVLPERADMRVERDGDLRWLVIERPPEQLFSKVVDFWTDTGFTVSVNNPQAGIIETDWAENRAKIPESWLRQVLGSVLETAWDSGEREKFRTRVERVNGHTEIYITHNQMLEKRVGSDGGQVQWTHGKEDPGLNAAMLARLMVYLGTDVDAARKLVAQAEAAPQAPKVQSVRAEGAMLVVDESFDRAWRRVGVALDSGGFAVDDRDRSAGEYFVRYVDTDTGAQNEQPGFFSRLFSSDKKAQAPQYRIRLTGSGTQTQVTVLDANGQRDSSATAQRMLSVLKDKMV
B2: the “BP1569-induced IL-6 production with TLR1 blocking antibody” value in the test with human TLR1 is reported as “significantly reduced”. Moreover, the “BP1569-induced IL-6 production with anti-TLR6 antibody” value with human TLR6 was “little effect”. Further, in test [5], the “IL-6 production by DC” value is reported as “induced robust”, the “IL-12 production by DC” value is reported as “induced robust”, the “IL-23 production by DC” value was “induced robust” and the “TNF-α production by DC” value is on record as “induced robust”. In the test with TLR2 [6], the “BP1569-induced TNF-α production in the presence of the TLR2 blocking antibody” value is “completely abrogated”. Moreover, the “luciferase activity (NF-κB reporter)” value in the test with human TLR2 [7] is recorded as “significant increase”. Moreover, the “effect of lipase treatment on induced IL-6 production” value in the test on BMDC from C3H/HeJ mice (100 ng/ml on DC) is on record as “abolished”. Further, in the test with BMDC from C3H/HeJ mice (then DC stimulation), the “effect of lipase treatment on induced IL-12p40 production” value is listed as “abolished”. Also, in the test with DC from C3H/HeJ mice, the “surface expression of CD80” value is “enhanced”, the “surface expression of CD86” value is given as “enhanced” and the “surface expression of MHC class II” value is given as “enhanced”. Also, the p38 phosphorylation entry in the test with p38 MAP kinase (15 minutes following stimulation) is listed as “enhanced”. The “p38 phosphorylation with anti-TLR2 blocking antibody” value with p38 MAP kinase (T2.5 2.5 μg/ml) is on record as “inhibited”. Also, the IL-8 production entry in the test with human TLR2 [8] is listed as “increased”. Moreover, in the test on C3H/HeJ mice [9], the “serum IL-6” value is recorded as “Significant concentrations” and the “serum IL-12” value was “Significant concentrations”. Besides, in the test on C3H/HeJ mice [10] (day 7, re-stimulated with BP1569 2 μg/ml), the “BP1569-specific IFN-γ by lymph node cells” value is reported as “induced at significant levels”. Besides, in the test with C3H/HeJ mice [10] (day 7 lymph node cells), the “IFN-γ upon re-stimulation with heat killed B. pertussis” value is listed as “produced IFN-γ”.
